{
  "source": "the DeepSol protein solubility set",
  "data": [
    {"test": "soluble on expression in E. coli; label from the status in PepcDB or PDB records", "values": [
      {"sequence": "EDAALREEAKGLFEVIPMQAPQLADNNTVTRDKIDLGAMLFFDPRMSKSGVFSCQSCHNVGLGGVDGLETSIGHGWQKGPRNAPTALNAVFNVAQFWDGRAPDLAAQAKGPVQAGVEMNNTPENLVATVQSMPGYVEAFAKAFPGQKDPISFDNFALAVEAFEATLITPNSKFDQWLMGADGAMSADEKAGLKLFIDTGCAACHNGINIGGNGYYPFGVVEKPGAEVLPAGDKGRFAVTATADDEYVFRAGPLRNIALTAPYFHSGKVWDLREAVSVMANSQLGATLDDTQVDQITAFLGTLTGEQPEVVHPILPVRSAQTPRPEHMN", "soluble on expression in E. coli": "soluble"},
      {"sequence": "MGHHHHHHSHMPVTEKDLAEDAPWKKIQQNTFTRWCNEHLKCVNKRIGNLQTDLSDGLRLIALLEVLSQKRMYRKYHQRPTFRQMQLENVSVALEFLDRESIKLVSIDSKAIVDGNLKLILGLVWTLILHYSISMPVWEDEGDDDAKKQTPKQRLLGWIQNKIPYLPITNFNQNWQDGKALGALVDSCAPGLCPDWESWDPQKPVDNAREAMQQADDWLGVPQVITPEEIIHPDVDEHSVMTYLSQFPKAKLKPGAPLKPKL", "soluble on expression in E. coli": "soluble"},
      {"sequence": "MLTLVGTYPPIRCGIATFNRDLREALLREGVPSQVAVVAHPEEVALPFPQEVVRVVAKEDREGYRALARLLRGPVILQHEYGLYGGKWGDYVLDLLEAQGPKLVVLHTLLQAPPPGLGEADLRYMQGLLRAMAERAQAFVALHPEGEGLLRALGVRIPVAHIPHGVPDLPRPPKEALKRALGLEGAFLLFTYGLLGPGKGLEFALKVLARVLPHNPRVRYLVAGRLHPNLERHEGRRYLERVREMAEALGVGEAFLLREGYLSEEELYRLAGAADLFLLPYPNLEQVSSGTLSYALALGKAVLSTPFRHARAALAAGRGVLLPLEEEAWAQAVLALAESPERLREMEERAYAYARDFTWPRVARAYRRLLEEVADVRPRVA", "soluble on expression in E. coli": "soluble"},
      {"sequence": "MHEWALADAIVRTVLDYAQKEGASRVKAVKVVLGELQDVGEDIVKFAMEELFRGTIAEGAEIIFEEEEAVFKCRNCGHVWKLKEVKDKLDERIREDIHFIPEVVHAFLSCPKCGSHDFEVVKGRGVYISGIMIEKEGEELEHHHHHH", "soluble on expression in E. coli": "soluble"},
      {"sequence": "MELPVVDLSSYLDFSGDELGSDLLESCRQVSRILKETGALIVKDPRCCAQDNDRFIDMMENYFEKPDDFKRLQQRPNLHYQVGATPEGVEVPRSLVDEEMQEKFNTMPNEYKPHIPKGPDHKWRYMWRVGPRPSNTRFKELNSEPVVPEGFPGWEEVMDSWGYKMISAVEVVAEMAAIGFGLPKDAFTSLMKQGPHLLAPTGSDLNCYNEEGTIFAGYHYDLNFLTIHGRSRFPGLYIWLRNGEKVAVKVPVGCLLIQAGKQIEWLTAGECIAGMHEVVVTSKTKDAITLAKEQNRSLWRVSSTLFAHIASDAELKPLGHFAESSLASKYPAIPAGEYVEQELSVINLKGNKGSS", "soluble on expression in E. coli": "soluble"},
      {"sequence": "MAHHHHHHMIVVSSPKATNYDEWEKQLKARRIIMNCPDEMVVKAMCAWMKRGLEPDKQVECWNMVEKHMEKVGPIPRHIFDEDDYIDRMSAVDDALLSIKPTDVGEHFTLRGSKLWYSEVPSHKLLKVVREITEKGAEVFLNASISADIGFRIADRLEKEMATKDFLLLILRWRDALVSHALEKLGLRAFMYGELVIAIVEGLKELPPPSPSKPRSSVLKVNYQGYPTRAVGLKELQGGVTRIPMEYRVLYIPKVENFPLVDGFFFVDSPRKTLVGLQMTTASAHHKITSTVNLFNERMAEYFNGWEELSRDLSWEMIYIQHALSKEISKWQRCGPVNTENLSDTEKEIVAFWDGRVHQYQFVLTPDFVSKIREMRIQQSWGKGIGKKVREIIGEQSAFRFGKYIGKYFNDFYVCVCAYGV", "soluble on expression in E. coli": "not soluble"},
      {"sequence": "MYDYSILPNRIILCVDLRSFYASVSCIKMGLDPMHTKLAVVGDVNRNGSIVLAATPPLKALGVKKMARLYEIPRRKDILVVNPIMSTYIKCSNYITKLALQYVPIEDFHQYSIDEFFMDITDSIHLFAQDPYEFAMKFKREIYDHTRIECTIGIAPNPLMSKVALDIEAKKNKDGIAFWQYEDIPTKLWSIRPLNKFWGISYKTEEKLNRKGIYSIGDLANYPLKYLKQSFGKIGEELHLHSHGIDFSRISEKYVPATTSIGKSQILMRDYTIEEFPIILLEHIEEVCYRLRRQTKLAQTIHFSVGYSKSYTGGIRKTHTLNRPTNLTMDIYHICTYFLHQQYTGEPIRSINISLTNLIQEGEEQISLFDNVTKREQEMKLTKVMDEIRTKFGKNSILRGISYTHSATARHRNTLIGLEHHHHHH", "soluble on expression in E. coli": "not soluble"},
      {"sequence": "MGSDKIHHHHHHMPQDRPTAAQLWSGEISFFSLDTDLIQSAGYSFDAGVLNQLPQVFPKTMQLLLTEVTAREIVSHLMKSVTQAMGEFRKGSDTLKRSVGIDMDQIDKLFEALSVVSSAEAVFRERVDSYAERCRGEVLPIGGGDMMPRIFERYFAGLPPFGARKDKKAEFPDAMSLLLLEDYARDHGTRGVVASRDEGWSEFAGKSEYLYCVKSLDALIALFEATGEHAKTLADRIASAVEDENSFVRAALLDGFRTHIHESSWNVENVYSGVVPRVEAATCEADVISHVLQSDRTKVWNLEEDKSVWVVELTASLTVEVQIDVTFYVWDAIDREEMELDTQTVRRKTNIEVKAFLTVGGAETEVDPAKWDVGVEIAPGQYEIDVGEVEPEYSGD", "soluble on expression in E. coli": "not soluble"},
      {"sequence": "MGSDKIHHHHHHMMKTVNELIKDINSLTSHLHEKDFLLTWEQTPDELKQVLDVAAALKALRAENISTKVFNSGLGISVFRDNSTRTRFSYASALNLLGLAQQDLDEGKSQIAHGETVRETANMISFCADAIGIRDDMYLGAGNAYMREVGAALDDGYKQGVLPQRPALVNLQCDIDHPTQSMADLAWLREHFGSLENLKGKKIAMTWAYSPSYGKPLSVPQGIIGLMTRFGMDVTLAHPEGYDLIPDVVEVAKNNAKASGGSFRQVTSMEEAFKDADIVYPKSWAPYKVMEERTELLRANDHEGLKALEKQCLAQNAQHKDWHCTEEMMELTRDGEALYMHCLPADISGVSCKEGEVTEGVFEKYRIATYKEASWKPYIIAAMILSRKYAKPGALLEQLLKEAQERVK", "soluble on expression in E. coli": "not soluble"},
      {"sequence": "MGSDKIHHHHHHMIGIEQYQKIQEYKELGLAQTKTAKALGITYSSVSKYWNMSEEDYVREAEQEKYHMDNYRQYILEQLKICPQIRDTNVYLKLMEAFPDLQVKRATFYRYMKALREQHGYQHTSKRKISPREVSPPGYEAQADFGQYKLKDMYGRIVRVYFFCMVLSYSRMKFVCFSPDPFTTKTGIKVHNYAFQCVWQV", "soluble on expression in E. coli": "not soluble"},
      {"sequence": "PEIAEVVIGVGENAVKIGGEEVLHRHELTFFNPTGFFYDVWDTMDDKALEERCDRVVSYKKFYVGNFLTLDGFAVRCTSGDPKRYREVVKKVASYGKPLILVALDSECMKAALEEVADQRPLMYAATEGNWKEFLKLALEYKVPVTLRAKDLDLLKSMAVTFKQAGVKDIVLDPVTEPLGEGLKGTFERVIQLRRTAIAGQDKDVAYPIMITPIAAWLIEGDDVTKSYWEAVIASIFIVKYGDVMIFRSIDQHVVMPTITLRFNIYTDPRTPVQVEPGLRAINDPGPDDPVFITTNFALTYYTVESDLTSGGIKGWLLVLNTEGLGVEVSVAGGQFTASKVKELIEETKIEEKVNHRYLVIPGLAARLQGAIEDETGWKVLVGPMDSGRIKGWLEKNWP", "soluble on expression in E. coli": "not soluble"},
      {"sequence": "MNKAAQKVLKLLGHTEIARVNSSCGAEQEYFLVDSNFAHQRPDLLLAGRTLFGKSPAKGQEFDDHYFGAIPERVQIFMQDVEAQLYKLGIPAKTRHNEVAPGQFEIAPVFEAANVASDHQQLIMTTLKTTAKKHGFMCLLHEKPFAGINGSGKHVNWSVGNATQGNLLDPGDSPHDNAQFLVFCGAVIRGVHKFGPLMRAVIANASNDHRLGANEAPPAIMSVYLGSQLEEVFEQIKNGTVSESKKKGVMDLGVAVLPELTKDAGDRNRTSPFAFTGNRFEFRAVGSSQSVSGPLVALNTILADSLGWIGDRLESELAKGLEISEAILTVLKEIMNDHGSVIFGGNGYSEEWHREAVQERGLRNLPTTADALPVLKEDEVVALFDQLKVLTPIELESRFEVYAEQYIKSIEV", "soluble on expression in E. coli": "not soluble"},
      {"sequence": "GAITKAVFDNEQGQAQRLQTSSSVEHGQMLFKDANLKTPSDVLNAFAKLDSKMVKSHAAELSQLAERAMTEVMLETDSGKNLKALIGDDAVKSLAVRVVKDYGGGVAAAQKNPEVRINQMQAVFDMEVMHLKAAQRHIEGLASTDLNQGVYAEGLPEDAFNKAGVTNNVERAAAWIINASNSKGNDAENITSLLKEYATNGKDLLNMDNLKELHARLVPNVERDYRGPNISGGTLPSSIGGEGMLKQHIEGFLKENPVADKDLGKHLFAGVIGYHGFTDGNGRMGRMLYAIAELRNDSFNPLAMNAENSLHGIK", "soluble on expression in E. coli": "soluble"},
      {"sequence": "MGSDKIHHHHHHVPKNKDSKNNSIPRRRFGRTEIQIPVLSLGGMRFQQSWKDLDPKEINNQQQEILQKTISYAAQKGMHHIETARHYGTSERQIGWAFDQIDDPKRILQTKVPPNNDPSIFEQELELSMSRLGSKKIDLLAIHGINLPEHLDMTIRPNGCLQIVRRWQKDGLIGHVGFSTHANVDLIIKTIETGFFDYVNLHWYFIRQENEKALQAADANDLGVFIISPTDKGGHLHTPSLKLLDLCSPLHPIEFNDLFCLRDKRIHTLSVGASSPEDLDIHLSAISKMDTMHGVINTIEKRLINASYKSLGESWLTTWNIGLPRWDQTPGEINIPTLLWLNNLLEAWDMESFVKDRYGLLGRGGHWFPGANADCLDCEVSEDDLKKVLINSPWSSEIPSVLRKLKDRLGGERRDRLWGI", "soluble on expression in E. coli": "not soluble"},
      {"sequence": "MDYQQDEYDEPFRIHLNLDNLTEDEAKARFSLIYDQHAQTMKRRETNDYLRPICIDGTDVSNKLNHIIRKNMDLFPVDKSIFNMRAITMALWYFISRGHAAVVFLPTNLRDFAQKCSDPHELSLLAKLELIVFDESTALNPSSAVLLSKTVATWAQNNDGCIVGSRKKYGLLGQRYSELIDRVTNTLISPAFTPDNELEICDLVRLVLAADEVRRNDENSNCMGYQLLASDQVVIMSKLAKMIGKDSMIDLCNRARELNTSTNPNYRNIFNNQKQSTSMGRVYQSPYHFNDPFLPDYVAPPPPIALESVAKPTRIGHRHSIYRVGEDKSTELENGDNRRKAVYRGALIDALQPMFGLEKATALVNGNPDQNEINDLIELGINQ", "soluble on expression in E. coli": "not soluble"},
      {"sequence": "MTAPTLAPIDPPARAQLLTDLQGAPDWDVIVIGGGATGLGTAVDAAARGYRTLLVEAADFAKGTSSKATKLVHGGVRYLAQGNISLVREALHERGLLNRNAPHLVWPLGFVVPAYSLLDQPFYGVGLKMYDMLAGKLNLAPSRWLSRGETLRHAATVAERVNGRALRGGILYYDGQFDDARLAIALMRTLYDLGGVALNYARAVGLTRTDGRVDGVTVADALGELRVTLRAKCVVNATGVWVDAVRRMDDPAAQTMVAPSQGVHLTLPRDFLPGEDAILIPKTDDGRVLFVVPWNGHTIVGTTDTPRTDLPLDPQAGQNEIDFILATAARYLSRKPTRADVTSVWAGLRPLVKATGEASTKSLSREHTIVVSKGGLVTVTGGKWTTYRKMAQDVVDTAIEHKLLAAAPCRTSELPLHGAPADGQPNGAPHGTPDSYYGTDLATLRALPGADRMLVKASALTEAHVRYAARHELARTVEDVLARRNRALFLDAEAALLAAPEVARILAQELGHDEAWSRATLAEFEAVAAHYRLALEHHHHHH", "soluble on expression in E. coli": "not soluble"},
      {"sequence": "MKAYVALLHSIVLGDGRRVVMADLKAMAEALGCRAPRTLVATGNLLFEAPEKPLAELEAELEKAFEKTFGRHVDIIVRSAEDWSRLAAGNPFLAESERDPASVHVRVMRLPLEVDMREKLLGYCSRGERVAIVDGDLWVDFAGKASESKLLGALTTKRLGIGTVRNWNTVKGLRGMVAG", "soluble on expression in E. coli": "not soluble"},
      {"sequence": "MIRKHSATLHGHRTSISLEDAFWDELKIIAERRKVSFAALLAEIDDSRPADSNLSSSLRVYVLNWLKTR", "soluble on expression in E. coli": "not soluble"}
    ]}
  ]
}
